Test results reported in the supplement of paper PMC9170038.

Test system: MS2 coat protein
Test: apparent KD of MS2 coat protein; designed switch direction (-1 OFF switch, 1 ON switch): -1; higher = weaker reporter binding
In short: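 The buffer was Tris-HCl pH 7.5 with KCl, MgCl2, BSA, DTT, tRNA and Tween-20. In it, SNAP-549-labelled MS2 coat protein was titrated in doubling steps from 0.7 or 1.5 nM to 3 µM over chip-bound RNA switches transcribed by stalled E. coli RNA polymerase on Illumina chips. Apparent KD is the per-design median over clusters of curve fits to normalised fluorescence.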

[1] = input ligand: microRNA oligo, concentration not stated
[2] = Eterna round: R95, input ligand: microRNA oligo, concentration not stated

Row | Sequence | apparent KD of MS2 coat protein (input ligand: FMN 200 uM) [nM] | apparent KD of MS2 coat protein [1] [nM] | apparent KD of MS2 coat protein (input ligand: none) [nM] | further results
1 | CUGCUCCGUGUAGGAUAUGCGCGCACCACCCGCGCAGAAGGACAUGAGGAUCACCCAUGUAUGUUAUUAUCACGUGAGGCGCGC [Design 37] (Eterna round: R96, puzzle: Exclusion NG 1) | 16.8 | 10.9 | 18 | 
2 | GUAUAUAGUGUGAGGAUAUGCUGGUCCUUGGAUCAGCAGAAGGCACAUGAGGAUCACCCAUGUAGUUAAAUAUA [Mat - Exclusion 4 - JL Mod - D20] (puzzle: Brourd's mod of Exclusion 4) |  |  |  | apparent KD of MS2 coat protein [2]: 30.1 nM
3 | GCACUGCGAGGAUAUACAUGAGGAUCACCCAUGUGUCGGCAGCCAUGUCAGUACAAAUGUAGAAGGCGCGUAAA [EX3 #54] (Eterna round: R97, puzzle: Exclusion 3) | 87.5 |  | 28.8 | 
4 | AAAAUACAUGAGGAUCACCCAUGUUAGGAUAUGCAAAGCCCAGUUAGCUUUUGGGUAGGUAGAAGGGACGGGUA [Reenen] (puzzle: Exclusion 1) |  |  |  | apparent KD of MS2 coat protein [2]: 21.5 nM
5 | AAAACACAUGAGGAUCACCCAUGUGAGGAUAUGUUAAUUUUAAUGAAAAUUAAAAUUAACAGAAGGCACAGAAA [JR_Exclusion1_Sub024] (puzzle: Exclusion 1) |  |  |  | apparent KD of MS2 coat protein (Eterna round: R95, input ligand: FMN 200 uM): 46.3 nM; apparent KD of MS2 coat protein [2]: 45.6 nM; apparent KD of MS2 coat protein (Eterna round: R95, input ligand: none): 54.2 nM
6 | GGAAGGCGAGGAUAUGCAAUAAUACACUCGAAGGAGUGAUAACAUGAGGAUCACCCAUGUAGAAGGCGCGAGAA [AK-MS2ROC-r4-exclusion2-6] (Eterna round: R97, puzzle: Exclusion 2) | 36.1 |  | 36.1 | 
7 | GGCCCGGGAGGAUAUACAAUGGGCUCGGGAAAUCGGGCUCGACAUGAGGAUCACCCAUGUAGAAGGCCCGGGCC [-36.5, -34.6 kcal A 24%, 4,0] (Eterna round: R97, puzzle: Exclusion 2) | 34 |  | 21.8 | 
8 | CCGGAAGUACAGGAUAUAGGAGUCGAUAGACUCCUAGAAGGGUAUACAUGAGGAUCACCCAUGUGUCCUACCGG [Fiskers Ex 6 - 71] (puzzle: Exclusion 6) |  |  |  | apparent KD of MS2 coat protein [2]: 23.6 nM
9 | UUAUGACAUGAGGAUCACCCAUGUAAGGAUAUCGAAGGAGAUGGUUACGAGGCCGCUACGAGAAGGUACGCGGG [Eternabot (L2) Solution 23] (Eterna round: R97, puzzle: Exclusion 1) | 161 |  | 109 | 
10 | CGACAGGGAGGAUAUACAUGAGGAUCACCCAUGUUCAAGCGUCCUUGAACUACCUCUGGUAGAAGGCCCUAAAG [jl-ex3-4.67 ViennaUCT mod] (Eterna round: R97, puzzle: Exclusion 3) | 44.6 |  | 123 | 
11 | GGAUCGAGUGUGAGGAUAUACCACUGGAUACAGUGGUAGAAGGCACAUGAGGAUCACCCAUGUCCCUACGAUCC [Fiskers BMX 4 - 45] (puzzle: Brourd's mod of Exclusion 4) |  |  |  | apparent KD of MS2 coat protein [2]: 28.2 nM
12 | UUUUAACAUGAGGAUCACCCAUGUGAGGAUAUCGAAAUUUAUAUUUAUAUUUAUAUAUCGAGAAGGCACAUUUU [JMF 96] (puzzle: Exclusion 1) |  |  |  | apparent KD of MS2 coat protein [2]: 118 nM
13 | UUCCUCACUUCUUUGUCUCACAUGAGGAUCACCCAUGUAAUAUAGGAUAUGCAUAGUAUUUCUAUGCAGAAGGAUAUUAGUUUU [JR_ExcNG3_Sub087] (Eterna round: R96, puzzle: Exclusion NG 3) | 131 | 27.3 | 34.7 | 
14 | AGUAACAGAGGAUAUACUAUUUUAUGUAUUUAUUAUUUUGAACAUGAGGAUCACCCAUGUAGAAGGCUGAAUAA [JMF 89] (puzzle: Exclusion 2) |  |  |  | apparent KD of MS2 coat protein [2]: 23.3 nM
15 | CUAGUAUAUCAGGAUAUGAUAGUGUAUAGUAUAUCAGAAGGGAUGACAUGAGGAUCACCCAUGUUAAGGGAUGA [JR_Ex6_Sub050] (Eterna round: R97, puzzle: Exclusion 6) | 52.4 |  | 46.1 | 
16 | CCUAGUUGGUAAGGAUAUCCUACAUUAUUCUGACCCGUGCAAGCUACAUGAGGAUCACCCAUGUGGGAGAAGGUGCGUUAACGU [Design 8] (Eterna round: R96, puzzle: Exclusion NG 2) | 55.7 | 35.2 | 55.1 | 
17 | UAUGGUUAAGUCAGGAUAUGCUCGUAGAGGUCUAUGCAGAAGGGACAUGAGGAUCACCCAUGUAAAGUCGUGUU [Ex4 #70] (Eterna round: R97, puzzle: Brourd's mod of Exclusion 4) | 51.5 |  | 25.1 | 
18 | UUAACAUUCGUCAGGAUAUUUGCUCGGUGUACGAGAGAGAAGGGACAUGAGGAUCACCCAUGUGACUUCAGCAA [Eternabot (Original) Solution 2] (Eterna round: R97, puzzle: Brourd's mod of Exclusion 4) | 19.6 |  | 15.1 | 

Row | Sequence | apparent KD of MS2 coat protein (input ligand: FMN 200 uM) [nM] | apparent KD of MS2 coat protein [1] [nM] | apparent KD of MS2 coat protein (input ligand: none) [nM] | further results
19 | AGCUGUGGCCGAGGAUAUCUGUCUCAUAAAACCGAAAUAUAAUCGGACAUGAGGAUCACCCAUGUAGAGAAGGCGGUCUCAGCA [Eli eng2 - 096] (Eterna round: R96, puzzle: Exclusion NG 2) |  | 15.8 |  | 
20 | AGCCCUGCAGGAUAUGCCCGGGAUAACAUGAGGAUCACCCAUGUGACCGAUUGUUAAUCUGCAGAAGGGCAUGGGA [JL-EX5-4.18 ViennaUCT mod] (Eterna round: R97, puzzle: Exclusion 5) | 313 |  | 563 | 
21 | GAAAAUGUGGAGGAUAUCGACUUCGAAAGAAGUCGAGAAGGCCACACAUGAGGAUCACCCAUGUGUUCCUUCAA [Omei Ex6 H2] (Eterna round: R97, puzzle: Exclusion 6) | 569 |  | 52.2 | 
22 | GGAAACCUACCGCGACAUGAGGAUCACCCAUGUGAUUGGUUUUAGGAUAUCUGGAGAAUCCAGACAGAGAAGGAGGGCCGUCGC [Eternabot solution 38] (Eterna round: R96, puzzle: Exclusion NG 3) | 77.5 | 28.5 | 45.1 | 
23 | AGCUGUGGCCGAGGAUAUCACGAACCAUGGAAAACCAUGGAACUCAAACAUGAGGAUCACCCAUGUGAGAAGGCGGUCUCAGCA [Eli eng2 - 018] (Eterna round: R96, puzzle: Exclusion NG 2) |  | 15.2 |  | 
24 | CAUGAGGUAGGAUAUACGAUAAUAUAGGGUAGAUAUAUAACACAUGAGGAUCACCCAUGUAGAAGGACCAGUAG [Mat - Exclusion 2 - Mod of my Tesla design - D67] (puzzle: Exclusion 2) |  |  |  | apparent KD of MS2 coat protein [2]: 29.8 nM
25 | UCUCUUGGGCAAGGAUAUCCUGCGCGGUUCCGGUUCGUGUCUGUCACAUGAGGAUCACCCAUGUGGGAGAAGGUGCCUGCGGUU [Design 76] (Eterna round: R96, puzzle: Exclusion NG 2) |  | 13.1 |  | 
26 | ACAAGCUUAAUCUGUAUGAACAUGAGGAUCACCCAUGUAUAAGGGAAUUCUUUUGGGUUUUUUAUAGCUCGUCUUAU [JR_STOV1_Sub020] (Eterna round: R97, puzzle: Sensor, turn-off variant 1) | 280 |  | 337 | 
27 | GACUCUCCCGUGAGGAUAUAUGAGGCCAUGAUUCCAUAGAAGGCACAUGAGGAUCACCCAUGUCGGGCAUAGCC [Eternabot (L2) Solution 8] (Eterna round: R97, puzzle: Brourd's mod of Exclusion 4) | 25.7 |  | 41.3 | 
28 | ACAUGAGGAUCACCCAUGUUUUUCGGGUACUCUUUUUACAGCAAGGAUAUGCAUUAUUUAUGUACGCAGAAGGUGCUUUACGUC [JR_ExcNG3_Sub065] (Eterna round: R96, puzzle: Exclusion NG 3) |  | 82.9 |  | 
29 | AGCGAAUAAGCAGGAUAUGAGAAUAGAUAGAGCUCAGAAGGGCUACAUGAGGAUCACCCAUGUAAAGUCUUGAGGCUGCGUGGU [Prohibition 13 - Jieux - Exclusion NG 1] (Eterna round: R96, puzzle: Exclusion NG 1) | 22.5 | 14.4 | 18.4 | 
30 | AGCCUAGCAGGAUAUGCCCGGGAUAACAUGAGGAUCACCCAUGUGACUGAUUGAUAUCUUGCAGAAGGGCUAGGGA [JL-EX5-4.06 ViennaUCT mod] (Eterna round: R97, puzzle: Exclusion 5) | 187 |  | 25.5 | 
31 | AGGUGCUUCUGGAAACAUGAGGAUCACCCAUGUUGAGUUAGCGAGGAUAUCGGUAACCAUUGUUAUGAGAAGGCGCAAACCAGA [Ex NG3 #37] (Eterna round: R96, puzzle: Exclusion NG 3) | 19.9 | 11.4 | 20.2 | 
32 | AGACGUGCAGUGCUCCUCCACAUGAGGAUCACCCAUGUCACUGAGGAUAUCUGCAGGUAACUGCUGGAGAAGGCAGAAAGAAUG [Atrien] (Eterna round: R96, puzzle: Exclusion NG 3) | 81.9 | 22.1 | 29.5 | 
33 | AGCAAGUUAGGAUAUCUUAAAGUUAGGUGAUGUCCUGUUUGAGAGAAGGAACAUGAGGAUCACCCAUGUGGUCA [Eternabot (L2) Solution 56] (Eterna round: R97, puzzle: Exclusion 4) | 58.3 |  | 62.6 | 
34 | UUUAUAUAUGAAGGAUAUACUUAACAUGAGGAUCACCCAUGUGGUGUUGUGAGUGAGUGAGUUUAGUAGAAGGUCAAUUCUUUU [JMF's solution 91] (Eterna round: R96, puzzle: Exclusion NG 2) | 731 | 335 | 362 | 
35 | GUGUAACAUGAGGAUCACCCAUGUCAGGAUAUCCGCUUUAACUAAAUAAAUAAAUAGUGGAGAAGGGACAGCGC [-13.9, -13.37 kcal, 36% A] (Eterna round: R97, puzzle: Exclusion 1) | 55.7 |  | 46.8 | 
